Reference: patent US20230047413A1

Target: tau seeds from spinal cords of P301S transgenic animals (human), P10636
Experiment: cell-based or functional assay

Chain of tau seeds from spinal cords of P301S transgenic animals (human), P10636 (P10636 other isoform, or with tags, fused parts or gaps P301S P301S): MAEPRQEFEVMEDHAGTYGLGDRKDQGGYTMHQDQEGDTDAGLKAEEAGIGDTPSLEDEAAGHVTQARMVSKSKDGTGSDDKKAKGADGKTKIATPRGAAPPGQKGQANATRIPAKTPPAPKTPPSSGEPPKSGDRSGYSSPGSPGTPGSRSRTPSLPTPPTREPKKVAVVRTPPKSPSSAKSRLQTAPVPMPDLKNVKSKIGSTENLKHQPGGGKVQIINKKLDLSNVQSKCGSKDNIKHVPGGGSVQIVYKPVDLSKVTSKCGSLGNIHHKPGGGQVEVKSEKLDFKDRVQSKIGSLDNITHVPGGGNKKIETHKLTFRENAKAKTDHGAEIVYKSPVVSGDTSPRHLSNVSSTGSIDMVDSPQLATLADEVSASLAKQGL

B1: PT3 (mouse-hybridoma-derived antibody) (antibody, V domains shown)
VH: EVKLVESGGDLVKPGGSLKLSCAASGFTFSSYAMSWVRQNPEKRLEWVASISKGGNTYYPNSVKGRFTISRDNARNILYLQMSSLRSEDTALYYCARGWGDYGWFAYWGQVTLVTVSA
VL: DIKMTQSPSSMYASLGERVTITCKASQDINRYLNWFQQKPGKSPKTLIYRANRLLDGVPSRFSGSGSGQDYSLTISSLDYEDMGIYYCLQYDEFPLTFGDGTKLELK
modifications: here or on the partner: aggregated
FRET/P301S spinal cord immunodepletion assay, 300 nM antibody (% of negative control): 96.2 | blocking of aggregate induction (FRET assay) at 3 nM: 30.7% | blocking of aggregate induction (FRET assay) at 30 nM: 37% | inhibition of K18 aggregate induction, FRET/P301S spinal cord co-incubation assay, 300 nM antibody (% of negative control): 34
